The target of this experiment is GNL3, endogenous (UniProt Q9BVP2). The experiment can be described thus: PLA (α-Flag + α-GNL3). The following applies: U2OS cells, 2 h, read off a plot.
Sequence of GNL3, endogenous (Q9BVP2 whole entry): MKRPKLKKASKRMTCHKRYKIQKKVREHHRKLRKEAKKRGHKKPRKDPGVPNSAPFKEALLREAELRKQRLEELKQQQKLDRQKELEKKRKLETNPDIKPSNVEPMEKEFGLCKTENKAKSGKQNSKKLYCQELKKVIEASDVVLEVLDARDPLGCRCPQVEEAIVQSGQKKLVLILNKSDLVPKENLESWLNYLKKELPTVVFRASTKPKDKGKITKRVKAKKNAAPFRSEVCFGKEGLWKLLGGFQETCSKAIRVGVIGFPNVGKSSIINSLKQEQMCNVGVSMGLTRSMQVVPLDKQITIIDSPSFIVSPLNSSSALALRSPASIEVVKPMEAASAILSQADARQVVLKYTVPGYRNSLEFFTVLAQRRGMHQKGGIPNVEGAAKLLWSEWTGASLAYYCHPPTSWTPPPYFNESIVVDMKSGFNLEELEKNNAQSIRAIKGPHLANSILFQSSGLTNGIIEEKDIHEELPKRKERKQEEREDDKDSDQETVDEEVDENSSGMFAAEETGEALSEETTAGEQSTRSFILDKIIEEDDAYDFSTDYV

Regarding “Flag-BLM, wild type (from UniProt P54132) SIMdm (both SIMs, 217QIDL220 and 235VICI238, mutated; substitutions not printed)”, the response (PLA dots per cell) (20 μM ETO, parent: est. 54) came to 28 and the response (PLA dots per cell) (DMSO (control), parent: est. 16) was found to be 11.

(Values after paper PMC13598120.)
